Experimental data: article PMC2847215
Like-named read-outs stand apart in the source and are kept apart here.

Tests used:
Assay in all cases: EMSA
rMcrA-S [1] = target: T1, rMcrA-S (UniProt P24200 1-277)
T1 sequence: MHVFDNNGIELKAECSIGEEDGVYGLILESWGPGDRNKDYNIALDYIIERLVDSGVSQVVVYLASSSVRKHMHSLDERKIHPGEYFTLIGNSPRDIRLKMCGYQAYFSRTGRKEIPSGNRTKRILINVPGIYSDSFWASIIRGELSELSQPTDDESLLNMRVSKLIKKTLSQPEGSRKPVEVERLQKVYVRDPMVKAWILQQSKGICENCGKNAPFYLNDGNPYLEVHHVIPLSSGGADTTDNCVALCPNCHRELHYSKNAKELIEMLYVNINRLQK

rMcrA-S [2] = target: T1, rMcrA-S; remark: listed apart in the source
rMcrA-S [3] = target: T1, rMcrA-S; remark: listed apart in the source
rMcrA-S [4] = target: T1, rMcrA-S; remark: listed apart in the source

B1: TCGG cassette (dsDNA)
DNA 1: CCCTCTGTCGGAGGAGGCTCCTGC
DNA 2: GCAGGAGCCTCCTCCGACAGAGGG
modifications: m5C9 strand 1, m5C15 strand 2 (M.SssI)
binding result (rMcrA-S [1]): binds

B2: C/A mismatch cassette (dsDNA)
DNA 1: GCCTTCAGCGCCGGCGGATCCAGT
DNA 2: ACTGGATCCGCCAGCGCTGAAGGC
modifications: m5C12 in strand 1 only
binding result (rMcrA-S [2]): no binding

B3: CCGG cassette (oligos 17/18) (dsDNA)
DNA 1: CCCTCTGCCGGAGGAGGATCCTGC
DNA 2: GCAGGATCCTCCTCCGGCAGAGGG
modifications: m5C9 strand 1, m5C15 strand 2 (M.SssI)
binding result (rMcrA-S [1]): binds

B4: CGC cassette (dsDNA)
DNA 1: CCCTCTGACGCAGGAGGCTCCTGC
DNA 2: GCAGGAGCCTCCTGCGTCAGAGGG
modifications: m5C9 strand 1, m5C15 strand 2 (M.SssI)
binding result (rMcrA-S [2]): no binding

B5: unmethylated cassette (oligos 7/8) (dsDNA)
DNA 1: GCCTTCAGCGCCGGCGGATCCAGT
DNA 2: ACTGGATCCGCCGGCGCTGAAGGC
binding result (rMcrA-S [2]): no binding

B6: CGG and ACGG cassette (dsDNA)
DNA 1: CCCTCTGACGGAGGAGGCTCCTGC
DNA 2: GCAGGAGCCTCCTCCGTCAGAGGG
modifications: m5C9 strand 1, m5C15 strand 2 (M.SssI)
binding result (rMcrA-S [3]): binds

B7: GCGA cassette (dsDNA)
DNA 1: CCCTCTGGCGAAGGAGGCTCCTGC
DNA 2: GCAGGAGCCTCCTTCGCCAGAGGG
modifications: m5C9 strand 1, m5C15 strand 2 (M.SssI)
binding result (rMcrA-S [3]): binds

B8: CGA and ACGA cassette (dsDNA)
DNA 1: CCCTCTGACGAAGGAGGCTCCTGC
DNA 2: GCAGGAGCCTCCTTCGTCAGAGGG
modifications: m5C9 strand 1, m5C15 strand 2 (M.SssI)
binding result (rMcrA-S [3]): binds

B9: C/G hemimethylated HpaII cassette (dsDNA)
DNA 1: GCCTTCAGCGCCGGCGGATCCAGT
DNA 2: ACTGGATCCGCCGGCGCTGAAGGC
modifications: m5C12 in strand 1 only
binding result (rMcrA-S [2]): binds

B10: CGT cassette (dsDNA)
DNA 1: CCCTCTGACGTAGGAGGCTCCTGC
DNA 2: GCAGGAGCCTCCTACGTCAGAGGG
modifications: m5C9 strand 1, m5C15 strand 2 (M.SssI)
binding result (rMcrA-S [2]): no binding

B11: cassette CCGG, single symmetric m5C in HpaII site (dsDNA)
DNA 1: GCCTTCAGCGCCGGCGGATCCAGT
DNA 2: ACTGGATCCGCCGGCGCTGAAGGC
modifications: m5C12 in strand 1 and m5C12 in strand 2 (positions from site name)
binding result (rMcrA-S [4]): binds

B12: TCGA cassette (dsDNA)
DNA 1: CCCTCTGTCGAAGGAGGCTCCTGC
DNA 2: GCAGGAGCCTCCTTCGACAGAGGG
modifications: m5C9 strand 1, m5C15 strand 2 (M.SssI)
binding result (rMcrA-S [1]): binds

B13: GCGG cassette (dsDNA)
DNA 1: CCCTCTGGCGGAGGAGGCTCCTGC
DNA 2: GCAGGAGCCTCCTCCGCCAGAGGG
modifications: m5C9 strand 1, m5C15 strand 2 (M.SssI)
binding result (rMcrA-S [3]): binds

B14: CCGA cassette (dsDNA)
DNA 1: CCCTCTGCCGAAGGAGGCTCCTGC
DNA 2: GCAGGAGCCTCCTTCGGCAGAGGG
modifications: m5C9 strand 1, m5C15 strand 2 (M.SssI)
binding result (rMcrA-S [1]): binds
